The record followed here is article PMC9561264, “Direct hOGG1-Myc interactions inhibit hOGG1 catalytic activity and recruit Myc to its promoters under oxidative stress”.

Common to all, as to conditions: protein: recombinant; tags: N-terminal His6 (removed by protease where required); label: 5' AF647 (FP) or Cy3 (EMSA) on bottom strand; blunt
The target in data set [1] is T1, hOGG1 wild type (human, UniProt O15527 1-345). Put plainly: fluorescence polarisation; reducing; FP at 25°C with 5 nM labelled DNA; EMSA room temp 30 min, 15% native PAGE 0.5x TBE 4°C; interaction buffer 20 mM Tris-HCl pH 7.6, 200 mM NaCl (Fig. S12); reducing (5 mM DTT in EMSA) or oxidising (pre-oxidised hOGG1).
Data set [2] addresses T1, hOGG1 wild type. Put plainly: fluorescence polarisation; oxidising, pre-oxidised hOGG1; FP at 25°C with 5 nM labelled DNA; EMSA room temp 30 min, 15% native PAGE 0.5x TBE 4°C; interaction buffer 20 mM Tris-HCl pH 7.6, 200 mM NaCl (Fig. S12); reducing (5 mM DTT in EMSA) or oxidising (pre-oxidised hOGG1).
Data set [3] concerns the target T1, hOGG1 wild type. Put plainly: fluorescence polarisation; oxidising; FP at 25°C with 5 nM labelled DNA; EMSA room temp 30 min, 15% native PAGE 0.5x TBE 4°C; interaction buffer 20 mM Tris-HCl pH 7.6, 200 mM NaCl (Fig. S12); reducing (5 mM DTT in EMSA) or oxidising (pre-oxidised hOGG1).

T1 sequence (O15527 whole entry): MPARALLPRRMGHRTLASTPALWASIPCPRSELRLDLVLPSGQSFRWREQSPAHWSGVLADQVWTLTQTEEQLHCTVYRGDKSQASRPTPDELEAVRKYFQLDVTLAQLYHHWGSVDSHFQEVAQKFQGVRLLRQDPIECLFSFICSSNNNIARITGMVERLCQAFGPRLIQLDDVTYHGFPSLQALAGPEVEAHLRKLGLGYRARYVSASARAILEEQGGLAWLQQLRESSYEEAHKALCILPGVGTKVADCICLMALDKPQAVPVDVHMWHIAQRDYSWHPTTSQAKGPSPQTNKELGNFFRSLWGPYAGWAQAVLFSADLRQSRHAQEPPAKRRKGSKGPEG

B1: oxoG 48 bp (EMSA/FP) (dsDNA)
DNA 1: GCATGCCTCGAGTCTAGAGGTACCAGATCTGATCCTCTAGAGTCGACC
DNA 2: GGTCGACTCTAGAGGATCAGATCTGGTACCTCTAGACTCGAGGCATGC
modifications: 8-oxoguanine at position 10 of strand 1 (written G)
With B1, the Kd with hOGG1 wild type [1] was 66 ± 5 nM; in the data set with hOGG1 wild type [2], 140 ± 9 nM.

B2: undamaged (nsp) 48 bp (dsDNA)
DNA 1: GCATGCCTCGAGTCTAGAGGTACCAGATCTGATCCTCTAGAGTCGACC
DNA 2: GGTCGACTCTAGAGGATCAGATCTGGTACCTCTAGACTCGAGGCATGC
Regarding B2, the Kd with hOGG1 wild type [1] amounted to 252 ± 43 nM; with hOGG1 wild type [3], 250 ± 18 nM.
